Assay [1] has as its target immunoglobulin immobilized on IgG Sepharose 6 Fast Flow (manufactured by Cytiva). Briefly: IgG Sepharose 6 Fast Flow column; linear gradient 0.1 M citrate pH 6.5 to pH 2.2; pH at the peak of the eluted binding protein.
In assay [2] the target is Herceptin containing human κ light chain subgroup 1 (Vκ1) (manufactured by Chugai Pharmaceutical Co., Ltd.). The assay is described as follows: ELISA; Herceptin immobilised, binding protein at 2 ug/mL, dissociation with 0.05 M citric acid pH 2.7 for 2 min, absorbance ratio to wells without dissociation. Background: An ELISA detects its analyte on a solid surface through an enzyme-linked reagent.

In US20250002543A1 one finds Elution pH and Elution rate [%] data, which are given here for one substance.

“FpL_C3 (wild-type), immunoglobulin-binding domain C3 of protein L (FpL) of Finegoldia magna” showed an Elution pH in assay [1] of 2.9 pH. Also, the Elution rate [%] in assay [2] stood at 76%.
